# Legend:
# Assay in all cases: GST pull-down of 35S-labeled protein on glutathione-Sepharose beads
# [1] = biological target: T1, glutathione S-transferase (GST) control (UniProt P08515 1-218 = GST)
# T1 construct: Control protein immobilized on glutathione-Sepharose beads
# Procedure: (§1) After 36 h, extracts are prepared and immunoprecipitated with a monoclonal antibody to the Flag-epitope. The immunoprecipitates (upper panel) and the corresponding cellular lysates (lower panel) are analyzed by SDS-PAGE and immunoblotted with a HRP-conjugated T7-antibody. IP, immunoprecipitates. (C) Mutations in the BH3 domain of Blk abrogate its ability to interact with Bcl-2 and Bcl-xL. 35S-labeled wild type Blk, mutant Blk-DG59 (M1) or mutant Blk-DG59-D60 (M2) (lane 1, input) are precipitated with GST (lane 2), GST-Bcl-2 (lane 3), or GST-Bcl-xL (lane 4) and then analyzed by SDS-PAGE and Coomassie staining to detect the GST fusion proteins (lower panel) and autoradiography to detect the interacting labeled proteins (upper panel). (D) Mutations in the BH3 domain of Blk abrogate its proapoptotic activity. MCF-7 cells are transfected with the indicated plasmids and then assayed for apoptosis as in FIG. 3A.
# (§2) Blk binds Bcl-2 and Bcl-xL. All the proapoptotic Bcl-2 family members can heterodimerize with Bcl-2 and Bcl-xL. To determine whether Blk can also bind to Bcl-2 or Bcl-xL, in vivo and in vitro binding studies are performed. Bcl-2 and Bcl-xL are constructed as GST fusion proteins inpGEX-4T-2 and pGEX-2T, respectively, by placing the coding sequence of Bcl-2 or Bcl-XL in frame C-terminal to the GST protein (Pharmacia). GST fusion proteins are expressed in E. coli and purified by affinity chromatography on a glutathione-coupled substrateGlutathione Sepharose 4B (Pharmacia). ³⁵S-labeled (Blk, Bik, Bax) proteins are expressed in vitro using a coupled transcription/translation system in rabbit reticulocyte lysate (TNT Kit; Promega). In vitro protein-protein interactions are carried out according to Boyd et. al. (supra). Briefly, labeled proteins are precleared by mixing with glutathione-coupled Sepharose beads, which are then removed by centrifugation. The supernatants are incubated with GST-Bcl-2, GST-Bcl-xL or GST immobilized on glutathione-coupled Sepharose beads for 2 h at 4° C. After extensive washing, proteins are recovered by boiling the beads in SDS-sample buffer and analyzed on 12% SDS-PAGE.
# (§3) ³⁵S-labeled Blk, Bik or Bax are precipitated with glutathione S-transferase (GST), GST-Bcl-2 or GST-Bcl-xL fusion proteins immobilized on glutathione-Sepharose beads (FIG. 5A).
# [2] = biological target: T2, GST-Bcl-2 fusion protein (human, UniProt P08515 1-218 = GST; P10415 1-239)
# T2 construct: Expressed in E. coli and immobilized on Glutathione Sepharose 4B beads
# Procedure: as §1, §2, §3
# [3] = biological target: T3, GST-Bcl-xL fusion protein (human, UniProt P08515 1-218 = GST; Q07817 1-233)
# T3 construct: Expressed in E. coli and immobilized on Glutathione Sepharose 4B beads
# Procedure: as §1, §2, §3
# T1 sequence (P08515 whole entry): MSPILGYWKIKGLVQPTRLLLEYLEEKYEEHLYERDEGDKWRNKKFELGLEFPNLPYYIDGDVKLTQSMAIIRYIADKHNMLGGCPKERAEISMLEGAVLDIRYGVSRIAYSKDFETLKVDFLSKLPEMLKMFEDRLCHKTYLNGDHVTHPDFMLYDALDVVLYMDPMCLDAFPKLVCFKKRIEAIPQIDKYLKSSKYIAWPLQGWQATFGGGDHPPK
# T3 sequence (P08515 1-218, tags or fused parts left off): as the sequence (P08515 whole entry) above
# T2 sequence (P08515 1-218, tags or fused parts left off): as the sequence (P08515 whole entry) above
binder,measurement,setting,value
"murine Blk (Bik-like killer), wild type (other, 35S-labeled (in vitro translated in rabbit reticulocyte lysate) in the GST pull-down, Protein of 150 amino acids; Used 35S-labeled from in vitro transcription/translation in the pull-downs, and expressed from pRSC-LacZ in the apoptosis assays; also called 35S-labeled Blk; wild type Blk) MSEARLMARDVIKTVPHDQVPQPPVASETPSMKEPVRDVDLMECVEGRNQVALRLACIGDEMDLCLRSPRLVQLPGIAIHRLAVTYSRTGVRGIFRSLIRSLTNLRENIWSWRVLTPGAWVSPDQDPGQLFPMVLLVFLLLGGAWYLQLQ",binding result,[1],no binding
"mutant Blk-DG59-D60 (Gly59 and Asp60 deleted) (other, 35S-labeled (in vitro translated) in the GST pull-down, Cloned in pFLAG CMV-2 and the pRSC vector; also called M2) MSEARLMARDVIKTVPHDQVPQPPVASETPSMKEPVRDVDLMECVEGRNQVALRLACIEMDLCLRSPRLVQLPGIAIHRLAVTYSRTGVRGIFRSLIRSLTNLRENIWSWRVLTPGAWVSPDQDPGQLFPMVLLVFLLLGGAWYLQLQ",binding result,[2],no binding
same,binding result,[3],no binding
"Bik (other, human, UniProt Q13323 1-160, looked up, 35S-labeled (in vitro translated), also called human Bik/Nbk; 35S-labeled Bik) MSEVRPLSRDILMETLLYEQLLEPPTMEVLGMTDSEEDLDPMEDFDSLECMEGSDALALRLACIGDEMDVSLRAPRLAQLSEVAMHSLGLAFIYDQTEDIRDVLRSFMDGFTTLKENIMRFWRSPNPGSWVSCEQVLLALLLLLALLLPLLSGGLHLLLK",binding result,[1],no binding
